Measurements from a protein production outcome set (Wang et al. 2014).

Test: label from the status in PepcDB records
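Note: failed if final PepcDB status was selected cloned or expressed and not failed if soluble or beyond.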

Sequence	protein production
MTTAQMSVYFFLQAAAILLVCRLVGMLAKRLGQPQVVGEMIAGVMLGPSLFGLLAPGAQAALFPKQTMDVLYVFAQFGVGMYMFLVGTDFRSDHFRARYRSAMSVSLAGIAVPFLLAFAMCPWLINVEGLFSEKAKLMEASLFLGAAIAITAFPMLARIIHERGLATSPLGTLALTAGAFDDASAWCILAVVLASFGGSWGSAYLAIGGGIGYAVFMIFVGRHLLKRLADHVVPGQPLSNSVLAVVLILFCVSAWAMDAIGIHAVFGGFLLGVCLPRGALTEKLREMLQPFVVVLLLPMFFTYSGLKTQLSVLLQPQIMLAGVAILAASFIGKGVACWAAARTTGENNRDAMAIGALMNARGLMELIIINIGLQAGVIEQGLFSVLVLMAILSTLMATPLFNWIMRRHAHVSDAVPSLQSR	failed
SDMGTSALSKKPWWTLPQNFHAPMVFHMEEDQEELIFGHGDTYLRCIEVHSHTLIQLESWFTATGQTRVTVGPHRARQWLLHMFCCVGSQDSYHHARGLEMLERVRSQPLTNDDLVTSISVPPYTGDLSLAPRISGTVCLSVPQPSPYQVIGCSGFHLSSLYP	failed
MAGHSHWAQIKHKKAKVDAQRGKLFSKLIREIIVATRLGGPNPEFNPRLRTAIEQAKKANMPWENIERAIKKGAGELEGEQFEEVIYEGYAPGGVAVMVLATTDNRNRTTSEVRHVFTKHGGNLGASGCVSYLFERKGYIEVPAKEVSEEELLEKAIEVGAEDVQPGEEVHIIYTVPEELYEVKENLEKLGVPIEKAQITWKPISTVQINDEETAQKVIKLLNALEELDDVQQVIANFEIPEEILQKVG	not failed
MDLSTAFPTLVTDLPAAFSMSVVGGVGLAMIVLDAFRNDHPAIPWLGVAALGVSAVWEITHLGAPPSTVFFETLRTGGFVAFINLIILLTGLATILLSVPYLNQLRYDYGEVYALIMFCTVGMIMLGSANNMVSIFLGLETMSVCLYVLTGFIREDEGAVESALKYFLLGAFSTGFFLYGIALMYGATGTMALPAMAAAELGTLSTRLLFWGGFALFLVGFFFKVSAAPFHMWTPDVYQGAPTPLTGYMSTATKAAAFAALILVLVHAVPGGEWQLSVAAVAVLTMVIGNVMALAQTNVKRLLAYSSIAHAGYLLVGLSAGTSAGYAGALFYLLVYAVMNIGAFGVMSMLEWDGKEGREQTLSSLAGIANDRPVLGSTMGVFMLSLIGFPPLGGFIGKYLVFAPAVDAGLTWLVVIGVLMSALSAYYYLRVVYVFWMQSADEVAATDPVRAAAFPRATVAATGTLVVCAVALVVLGVFFGGVLETTLGFFETTAMATAP	failed
MIGDYERFKQLKKKVAEALNISEEELDRMIDKKIEENGGIILKDAALMMIAKEHGVYGEEKNDEEFLISDIEEGQIGVEITGVITDISEIKTFKRRDGSLGKYKRITIADKSGTIRMTLWDDLAELDVKVGDVIKIERARARKWRNNLELSSTSETKIKKLENYEGELPEIKDTYNIGELSPGMTATFEGEVISALPIKEFKRADGSIGKLKSFIVRDETGSIRVTLWDNLTDIDVGRGDYVRVRGYIREGYYGGLECTANYVEILKKGEKIESEEVNIEDLTKYEDGELVSVKGRVIAISNKKSVDLDGEIAKVQDIILDNGTGRVRVSFWRGKTALLENIKEGDLVRITNCRVKTFYDREGNKRTDLVATLETEVIKDENIEAPEYELKYCKIEDIYNRDVDWNDINLIAQVVEDYGVNEIEFEDKVRKVRNLLLEDGTGRIRLSLWDDLAEIEIKEGDIVEILHAYAKERGDYIDLVIGKYGRIIINPEGVEIKTNRKFIADIEDGETVEVRGAVVKILSDTLFLYLCPNCRKRVVEIDGIYNCPICGDVEPEEILRLNFVVDDGTGTLLCRAYDRRVEKMLKMNREELKNLTIEMVEDEILGEEFVLYGNVRVENDELIMVVRRVNDVDVEKEIRILEEME	failed
QQAIADQLLEMILQSQDLHNAYRLVVEGLQRGLGVDRVLLVQNAVFPNRQSRLVAQAIAPARDIMLLDEPCADCRWLHLLGQLPHYGLWTVWEGEGEFVQLDPVQGEFCRTLGIKSLLHLPLVINQRHWGVLSLQYLHQARPWPLEDQQFAQRIAHLFCLGLMKTELWIHCQNHKNALQTVVAEGQ	failed
MSLIYTITLNPAIDRLLFIRGELEKRKTNRVIKTEFDCGGKGLHVSGVLSKFGIKNEALGIAGSDNLDKLYAILKEKHINHDFLVEAGTSTRECFVVLSDDTNGSTMIPEAGFTVSQTNKDNLLKQIAKKVKKEDMVVIAGSPPPHYTLSDFKELLRTVKATGAFLGCDNSGEYLNLAVEMGVDFIKPNEDEVIAILDEKTNSLEENIRTLAEKIPYLVVSLGAKGSICAHNGKLYQVIPPKVQERNDTGAGDVFVGAFIAGLAMNMPITETLKVATGCSASKVMQQDSSSFDLEAAGKLKNQVSIIQLEEREGHHHHHH	not failed
EAGEITFTEWCQGAVDMWRANDITRSDITRATRALKPKAGAVDLLAHLQQTDIRFGILSAGVANLAARFEPYEPAFVRGNWLQFEDRRVSAIDIGVGPNEKGELLRKIRSKQNPVSITYIGDSHTDTEAFIEADTAVLFDPDERVPETAIDAADTIIESADIAEVQNCIPTA	failed
MSQNLQETSQAYPRHRPGSHAGPKSLKVTPRATMYTFLPDNFSPAKPKPTKELRPLLCSAVLGLLLVLAAVVAWCYYSASLRKAERLRAELLDLNRGGFSIRNQKGEQVFRLAFRSGALDLDSCSRDGALLGCSRAADGRPLHFFIQTVRPKDTVMCYRVRWEEAVPGRAVEHAMFLGDAAAHWYGGAEMRTQHWPIRLDGQQEPQPFVTSDVYSSDAAFGGILERYWLSSRAAAIKVNDSVPFHLGWNSTERSMRLQARYHDTSYKPPAGRTAAPELSYRVCVGSDVTSIHKYMVRRYFNKPSRVPASEAFRDPIWSTWALHGRAVDQNKVLQFAQQIRQHRFNSSHLEIDDMYTPAYGDFNFDEGKFPNASDMFRRLRDAGFRVTLWVHPFVNYNSSSFGEGVERELFVREPTGRLPALVRWWNGIGAVLDFTHPEAREWFQGHLRRLRLRYNVTSFKFDAGEVSYLPRDFSTYRPLSDPSVWSRRYTEMAEPFFSLAEVRVGYQSQNISCFFRLVDRDSVWGYDLGLRSLIPAVLTVSMLGYPFILPDMIGGNAVPERTAGRQDGPGPERELYVRWLEVAAFMPAMQFSIPPWQYDAEVVAIAHKFAALRASLVAPLLLELAGEITDTGDPIVRPLWWIAPGDETAHRIDSQFLIGDTLLVAPVLEPGKQERDVYLPAGKWRSYKGELFDKTPVLLTDYPVDLDEVAYFTWAS	failed
MRVFLCGPLASDGLRQRVLGSAPDGVPARLADHALGAAGATVSPMPAPGASVAGLVMELGAEAGARLLHYQTATGHEARTLAVAGAPALVFFAPPEGLEPWDEAAWGALWGPIVVATAGDVMALWPEVPAERIARRYRLMLVQGASRVRAAADPGPARRRHAAQPGDVRIVRRSQPYANFFAVEEYDLSFRSFGGGMSPTLNRAVFISGDAVTVVPYDPVRDRVLLIEQFRPGPLGRGDAQPWLLEPIAGRVDPGETPEAAARREAVEEAGLDLGALLPVASYYPTPAAKAEYLYSYVALAQLDDGIEGIFGMEGEGEDIRGHLMSFDEMMALIRSGEICNGPLLLTALWLDRERPRLRGE	failed
MVYDNIKREIIGMLKRMPNKQADWDNDLLPTLKAMFNPKSVSNAKSQLISEGVISQEIVDGKKIITLIKDPYELQAPNVFDEEMFLAYYTDKLKEYFKHKLSTEGPEWDIFDVKEFIMHFPESGDLNDKLIEHPYEVRKSITNVYIEAYEELFNETPNVEFIHIRNPIDCRISLSELSSAHKGKLVEFRAMILQATKLKLRYAKGFYYCPKCGATKTLDLGFWDKPKEVGKSLTCPADGCDCKGLIFDEDLSGKVDFQEIKVQTPLQESIYANKHSTTVFYEFNKPKKAVYSGYVKIVGVPIVKENKNGSVGELYIHAFYIEKDDEDIEEIAKNLNEKDLELINRIAKDKNVIQKLSDYAFREVTGYDMIKRAVLLQLVSSGTNIDMRTSIHILMISDPGVGKSTLMESLIQKFPFVKKVYAVTSSGPGLVGSVVREKAEFGDSWVLKAGVLTEADGGVVCIDEFSRNKEVYDYLLGVMEQQKIEINKAGVIDAVLPARVAILAACNPRFGRFNPDLTVWEQINLPKELLDRFDLIFVIKDKIDKKKDEDIADFSIDNYNSKVRERKGKSSGKKFVINGVELNDELLLKYVLYARQIEPEISDEARKIIKEYYVSVRKMSEAKGTFGISARQLGSIIRLAVAHAKLRLSEVVKAVDAEEAIRLVDTCLKQIAYDPESGSIDIDKIAGTPKSKRDKVEKVLNIIKEISNSRDDGLAPEEEIYERAERAGLSEKEVEDAINYLKRVGDIYSPKSGYWQLMS	failed
MNNGRRIGLIMIITGATLWGLSGPMIQWLFQHTNVSSIDFLTIRLLLAGIFILSFLLIKKQNIFQIWKHPRYSIQLIIFSILGMLGAQYAFIETVHISNAVTATLFQFLGPVLITMYVAFEQRKFPASMQLFAIIAALIGTYFIITNGSIENIVLSKEAIIFGLLTAIGFAFYTLHPASLIKECGTTVVIGWGMLIGGIALLIYNRSFGWNQFSQTLTLKTFSMLILIIISGTLSFLLYIGSLKYLAATETSILSSIEPLVAAIVSITWLNESFGTYQLLGGVCIVLSVIFLTMPQKETEPTYTTEQI	failed
MKKEFSAGGVLFKDGEVLLIKTPSNVWSFPKGNIEPGEKPEETAVREVWEETGVKGEILDYIGEIHYWYTLKGERIFKTVKYYLMKYKEGEPRPSWEVKDAKFFPIKEAKKLLKYKGDKEIFEKALKLKEKFKL	not failed
MVFPSEQEQIEKFEKDHVAQHYFEVLRTLISKKSVFAQQVGLKEVANYLGEIFKRVGAEVEIDESYTAPFVMAHFKSSRPDAKTLIFYNHYDTVPADGDQVWTEDPFTLSVRNGFMYGRGVDDDKGHITARLSALRKYMQHHDDLPVNISFIMEGAEESASTDLDKYLEKHADKLRGADLLVWEQGTKNALEQLEISGGNKGIVTFDAKVKSADVDIHSSYGGVVESAPWYLLQALQSLRAADGRILVEGLYEEVQEPNEREMALLETYGQRNPEEVSRIYGLELPLLQEERMAFLKRFFFDPALNIEGIQSGYQGQGVKTILPAEASAKLEVRLVPGLEPHDVLEKIRKQLDKNGFDKVELYYTLGEMSYRSDMSAPAILNVIELAKKFYPQGVSVLPTTAGTGPMHTVFDALEVPMVAFGLGNANSRDHGGDENVRIADYYTHIELVEELIRSYE	not failed
MNFVTFQFVVFLVITVIVFMMMSPYYRKYFILLCSYFFYGTWSVPLISVILFSTSVDYYLGKKIHESHSQTHKKLYLTLSILVNCSILVYFKYMNFFISSIDAIGFSLGATQLLLNPMHIILPLGVSFYTFEAISYIVDIYRGEKPASSWLNYNFYIMYFPHLISGPIVRYKELHAQYESKIELPETSRLKEGFQLLLYGFIFKLVIADSMASISDPLFDKYQTIGHLESWLASIAFTIQIYFDFLGYTHIARGVSLFFNIKLPVNFNHPYNARNISEFWQRWHITLSLWIRDYLYIPLGGNRGRLYQTVNNLLITMFIAGLWHGASWNYAIWGTYHGCLLAVYHVFRFYYIKRNLQTENQLMKIGSIIMTYSLVVIGWVIFRSTSFEQAFTILGKMYDIPGFVQEFAMNQRASAYTDSLFYLVGMFALCFIGPTFKSIETKILSAVQPFWIKKWLYSLSIFTVLIFMFSPVKPFIYFVF	failed
MEPHAESAAAGQAAPPEKRRASWFTRMGRVVRFAGQRADEQKLLQVASSLTFTTVLAIVPMLAVVLSLFTAFPVFQEFRVALEDFLANSLMPPSVSDNIMDYLNQFARQATRLTAIGGAFLIVTSLLLIMTIDKTFNDIWQVTRQRPLPQRALVYWAVITLGPVVAGASLWATSFVARESLGLVRDVPEAVSVAISFIPLVLTGLGFAALFVVVPNRRVYWKDALVGGFGTAIVLELMKAGFAYYLTRFPAYTVIYGAFATLPIFLLWIYLSWLAVLFGATVAASAPLIRLGRWEINRHAGAPFIDALGVLRVLHAAQGSRPAGRSANALAKRLRLHHDELNAVLEALEDMELVARTAEQRWVLTCDPRTTTLEPVFDRFLLDRGQPRLRDEPEIAAVAAGVLGQGPDPTLADLAGVAQNTDIGPAAAVLQLETGKK	failed
